Experiment: label from the status in PepcDB records

Row | Sequence | protein production
1 | MAELILNQRPYPRDLGKIVCVGRNYAAHAKELNNPIPSSPILFIKPASSAVPFGPVFSIPKDQGSVHHELEIAILIGKALSRASTEQVAESIAGIGLGLDLTLRDVQDQLKEKGHPWERAKSFDGACPLTEFVAVNLASEDEWQAIGLTLEKNGQFQQQGSSAEMLFPILPLIAHMSEHFSLQPGDVILTGTPAGVGPLEVGDSLSAKLSLEDNVLLTCDGVVI | not failed
2 | MSLHGKLIQFHKFGNPKDVLQVEYKNIEPLKDNEVFVRMLVRPINPSDLIPITGAYAHRIPLPNIPGYEGVGIVENVGAFVSRELIGKRVLPLRGEGTWQEYVKTSADFVVPIPDSIDDFTAAQMYINPLTAWVTCTETLNLQRNDVLLVNACGSAIGHLFAQLSQILNFRLIAVTRNNKHTEELLRLGAAYVIDTSTAPLYETVMELTNGIGADAAIDSIGGPDGNELAFSLRPNGHFLTIGLLSGIQVNWAEIVTKAKVHANIFHLRHWNDEVSPYKWQETFRHLIRLVENEQLRFMKVHSTYELADVKAAVDVVQSAEKTKGKVFLTSYEGHHHHHH | not failed
3 | MFFNFLIPPNSFSSFPEYVAFVVSLSYALNATLLLLYSRIFGVEVKEKAFIPVTLSFVAIDFTSIQGLRLFVGIPAYLGVVILTSLCILEGLALALTSSLALVNASRRHLAATWIAANVASSGLFMAFVGVS | failed
4 | MMRMKVKVVVNGKEYEVEVEEVMPGKFRVTLEGETYEVETSAGFVTSPKQVQVPTPAPTPAPAPTPTPAPAPSSKTVVSENVVSAPMPGKVLRVLVRVGDRVRVGQGLLVLEAMKMENEIPSPRDGVVKRILVKEGEAVDTGQPLIELG | not failed
5 | MRLGTFHKKKRFYINKIKINFLSFLFRNKINNQITDPAQVKSCLIIHDNNKLGDLIVLSSIYRELYSKGVKITLLTNRKGGEFLSNNKNIFEFCIKESTGFLEMLTLCKHLRDLQFDIVLDPFETMPSFKHSLILSSLKDSYILGFDHWYKRYYSFYHPHDECLKEHMSTRAIEILKHIYGEGKFSTNYDLHLPVDVEDKIKEFIGDTRIVIINPLGAKKICRLTFEQIKVIYQEVKTHFENYRIIFTGLPQDLLTIPILEIETLPFDEFIYTVALTKYSDFVISVDTALVHIAAAYHKPTLAFYPNSRTPEYPSHLIWSPNHHKSIQIVSPTYTVKDIDTETLTNSVKRLSCIDKK | failed
6 | MELFGSFAFFGGALFGGLGLLLYRALGLPWRLGYRHLIGALCLAVWLAVFWTRPYQPLGLLAVASAALWAMRRGYLPTWAAVLLTMAPLLLLKCGITTMTGMLGLSFATFRAVDVLLFAPRNERISPLDYCIYLFFPLTLLAGPMYRWRNFQADLKRGYEGVTLETWLAGLELLIFGVIQKFGVAEAIWRYGLNTLDAHDYSLTGVALNASLYSFYLFFDFAGYSSMAIGVGMLFGFTLPVNFRNPLASANPQDFWRRWHISLSEWLRDVVFMPIYKALSKTAFFGRHRLAAQNIGILATLLAMGVWNGLALHYVVSGLMFGAYSVGHNLLVQHARTRPALQAFLARRPVQWAGRALTLILAALALYVFSGRSPI | failed
7 | MSEAKWLSLLGLAARARQLLTGEEQVVKAVQNGQVTLVILSSDAGIHTKKKLLDKCGSYQIPVKVVGNRQMLGRAIGKHERVVIGVKDAGFSRKLAALIDE | not failed
8 | MNITLGYIDPVAFSLGPIQVRWYGIIIACGILLGYFIAQAALKQVGLHKDTLIDIIFYSAIVGFIVARIYFVTFQWPYYMNHLSEIPKIWHGGIAIHGGLIGGLISGIIVCKIKNLHPFQIGDIVAPSIILAQGIGRWGNFMNHEAHGGPVSRAFLEHLHLPDFIIRNMYIEGQYYHPTFLYESIWDVIGFVILITLRKRLKLGETFFGYLIWYSVGRFFVEAMRTDSLMLTSHIRVAQLVSVVLILISVIFVIYRRVKYQPIKYENSGPLTWPIKKAK | failed
9 | MPVRVIVDSSACLPTHVAEDLDITVINLHVMNNGEERSTSGLSSLELAASYARQLERGGDDGVLALHISKELSSTWSAAVTAAAVFDDDSVRVVDTSSLGMAVGAAAMAAARMAKDGASLQECYDIAVDTLKRSETWIYLHRIDEIWKSGRISTATAMVSTALATRPIMRFNGGRMEIAAKTRTQSKAFAKLVELAQIRADGEPVFIAIGQNEAREAAKQLEELLRNALPEGSSFMSVDIDPTLAVHSGPGAVSVSAVFANQAPELSTGKAGAK | not failed
10 | MGSVSTGNAGSGTVGTSTTSRADVMTFQPSSLPVSYVGETYNVQVGVTGGVGPYGYRLTAGTLPPGLKFAGGALSGTPTKAGSYSFAIQATDANLSTRVQEYTMNVDALPPLALKPTLPPGEIRGETRIPVTIQAPRAVRAARLSWDLGKDVQVTRVQPADAGSVVFWQQRGSVLTVDLGFRTVPRPDARIALITVKPAKAVTLKADALGYEARDGSGKMLVDKKRPGSEPVKPAEQPGDPKVDPKAADQKATDQKATDPKTVDPKTVTPADTVEGGPLPSPALPTPSLPPTLPPVTTPPANTPPVPTPTPPANQPAPAPAPQPAPAPQPTPPSGTGGALEHHHHHH | failed
11 | MPTISTSVCVNYTQDQMYELVNDVADYPKYLPLCRDVRVLSAADRHIKATITLAKGAVRLNFTTANTMEPGRHIHMKLVDGPFKYLRGNWRFDANPHGGCDVSFRVDFEFANPLLQMALGGIFREVMESLVAAFCNQAAKRYGNAGPALPPGQAQDGVGRSGSV | failed
12 | MNIRHIRNATAVIEYGGKRILIDPMLSDKGSFDPFPNSPRQDQKNPLVELPMAIEDIINDIDLVILTHLHIDHFDPKAIEVLPKDIKIYAQNEEDASEVERYGFTNVSVFNDVTHIGEIELIKTDAQHGHGEILKMTGHVHGMILKHSEEPTLYLAADTVWFEGVEKALKTYQPDVVVLNGGANQFFEGGPLVMDEHDVLKVANTLPLAQIVVVHMEAVNHWHLSRKELNEFINSNDLGNRVVVPNDGELLTFEK | failed
13 | MLESFGEHRWLLWAVASAVLACTEMLSGEFTLLMLAAGAGAGAITAAIVPGMWLLQVIVAAVVAALLLTVLRPTLLRRVREAPGYRSALDKLVGSDGVATSDITDGHGQVKVDGEEWSARALEPGSTIAAGEKIEVYEIDGATLVVYPVFRSLSS | failed
14 | MQIIEGKLQLQGNERVAILTSRFNHIITDRLQEGAMDCFKRHGGDEDLLDIVLVPGAYELPFILDKLLESEKYDGVCVLGAIIRGGTPHFDYVSAEATKGIAHAMLKYSMPVSFGVLTTDNIEQAIERAGSKAGNKGFEAMSTLIELLSLCQTLKG | failed
15 | MIKDRFLQLIQLLISLFLIMGALGIGITIQKFTGVSVPGSVIGMLVLFFSMTLGLVKVDWVKPGATLFIRYMILLFVPISVGLMQHFDMLLANALPIIASAVGGSLIVLVSLAWLLDYLLKEKH | failed
16 | MIVDFETHFITEACIDYLTQRQEVPKLVPDLNGAYTMCFTPDVSLFHTSALMEELLSLNEQRLAIMDQAGVTIQVLSLTTINGIDSCPGDENKSTALAREVNDQLYSAIQRHPERFKGFASISPYDVKEGVKELERAISQLGFVGWLTHSNFGQDNYLDDKTYWPLLEAAEGLNIPIYLHPNVPIMREFGKYGFALGGSALGFEFDTALCLMRMILGGVFDAFPKLKIMLGHLGETMPFLMERLDHLYRIPDLKAYRPSIQRIPSEVLRQNVYITTSGRFFVPALRYVLEVMGEDRVLFASDYPMESLLDATRFIQDSDLSNQTKQKIFSINAKNLNLILEHHHHHH | failed

— a protein production outcome set (Wang et al. 2014)
